# How the values were obtained:
# HLA-A*0201 = molecular target: T1, HLA-A*0201 (Homo sapiens, UniProt P04439, D140Y/D185E/D98H/E176V/E277Q/G131W/G231S/I119V/I121R/I166T/I218V/L300P/L318F/N151K/N90K/P208A/P217A/Q86G/Q94H/R138H/R169H/T345S); assay: Affinity of the peptide to T2 cell line (HLA-A*0201 expression, FACS); format: cell-based; conditions: for Concentration that induces 20% of expression of the HLA-A*0201 / Mean fluorescence intensity: T2 ATCC cells; for Concentration that induces 20% of expression of the HLA-A*0201: Example 1; for Binding to HLA-A*0201 (in words) / Affinity to HLA-A*0201 compared with the corresponding human peptide (in words): T2 cells; for Affinity to HLA-A*0201 compared with the corresponding human peptide (in words): relative affinity, lower value = higher affinity; for Relative affinity: conc. inducing 20% expression / same of reference peptide HIV pol 589-597; for HLA-A2 labelling at 0.1 μM / HLA-A2 labelling at 1 μM / HLA-A2 labelling at 10 μM / HLA-A2 labelling at 100 μM: percentage of labelling of HIV pol 589-597 at 100 μM; for HLA-A2 labelling at 0.1 μM: peptide 0.1 μM; for HLA-A2 labelling at 1 μM: peptide 1 μM; for HLA-A2 labelling at 10 μM: peptide 10 μM; for HLA-A2 labelling at 100 μM: peptide 100 μM
# T1 construct: the human tumoral cell T2 which expresses the HLA-A*0201 molecule; endogenous in cells; host or cells: T2 cells (human, TAP1/2 negative; 'T2 ATCC Cells')
# Method: Affinity measurement of the peptides is achieved with the human tumoral cell T2 which expresses the HLA-A*0201 molecule, but which is TAP1/2 negative and incapable of presenting endogenous peptides.
# T2 cells (2.10^5 cells per well) are incubated with decreasing concentrations of peptides from 100 μM to 0.1 μM in a AIMV medium supplemented with 100 ng/μl of human β2m at 37° C. for 16 hours. Cells are then washed two times and marked with the anti-HLA-A2 antibody coupled to PE (clone BB7.2, BD Pharmagen).
# The analysis is achieved by FACS (Guava Easy Cyte). […]
# [1] = tested on: IFNγ-producing cells (splenocytes); assay: ELISPOT-IFNγ assay on splenocytes of vaccinated β/A2/DR3 mice; format: in vivo, mouse; conditions: for Percentage of ConA-induced response (ELISPOT-IFNγ): mice vaccinated with the labelled peptide (100 μg s.c. + HHD-DR3, IFA, d0/d14), mean, SEM
# [2] = ex vivo re-stimulation with IL13RA2-B pAg 10 μM
# [3] = ex vivo re-stimulation with IL13RA2-H pAg 10 μM
sequence,measurement,setting,value
FLPFGFILV [IL13RA2-B],Concentration that induces 20% of expression of the HLA-A*0201,HLA-A*0201,4.4 µM
same,Mean fluorescence intensity,HLA-A*0201; peptide at 0.1 μM,9.9
same,Mean fluorescence intensity,HLA-A*0201; peptide at 100 µM,112.03
same,Binding to HLA-A*0201 (in words),HLA-A*0201,binds strongly
same,T cell responses in the ELISPOT-IFNγ assay after vaccination (in words),[1]; compared to IL13RA2-H-vaccinated animals (group 2),improved T cell responses
same,Percentage of ConA-induced response (ELISPOT-IFNγ),[1]; [2],56.3%
same,Percentage of ConA-induced response (ELISPOT-IFNγ),[1]; [3],32.3%
"GLPPDVQRV [MMP2-H, reference compound]",Conc. inducing 20% of HLA-A2 expression,HLA-A*0201; Table 8,1.76 µM
ILLGVVFGI [ERBB2-3B4],Affinity to HLA-A*0201 compared with the corresponding human peptide (in words),HLA-A*0201,higher affinity
same,Conc. inducing 20% of HLA-A2 expression,HLA-A*0201; Table 7,0.9 µM
ITSDVPFSV [PMEL-B],Affinity to HLA-A*0201 compared with the corresponding human peptide (in words),HLA-A*0201,higher affinity
same,Conc. inducing 20% of HLA-A2 expression,HLA-A*0201; Table 8,18.24 µM
KLVEWLAML [MAGE C1B],Affinity to HLA-A*0201 compared with the corresponding human peptide (in words),HLA-A*0201,higher affinity
same,Conc. inducing 20% of HLA-A2 expression,HLA-A*0201; Table 8,30.91 µM
"KVVEFLAML [MAGE C1H, reference compound]",Conc. inducing 20% of HLA-A2 expression,HLA-A*0201; Table 8,60.07 µM
"MIAVFLPIV [STEAP-H, reference compound]",Conc. inducing 20% of HLA-A2 expression,HLA-A*0201; Table 8,33.45 µM
MLAVFLPLV [STEAP-B1],Affinity to HLA-A*0201 compared with the corresponding human peptide (in words),HLA-A*0201,higher affinity
same,Conc. inducing 20% of HLA-A2 expression,HLA-A*0201; Table 8,5 µM
RLLEETDLV [ERBB2-1B],Affinity to HLA-A*0201 compared with the corresponding human peptide (in words),HLA-A*0201,higher affinity
same,Conc. inducing 20% of HLA-A2 expression,HLA-A*0201; Table 7,9.5 µM
SLPPDVQQV [MMP2-B],Affinity to HLA-A*0201 compared with the corresponding human peptide (in words),HLA-A*0201,higher affinity
same,Conc. inducing 20% of HLA-A2 expression,HLA-A*0201; Table 8,0.88 µM
TMNGKSSPV [ENAH-1B],Affinity to HLA-A*0201 compared with the corresponding human peptide (in words),HLA-A*0201,higher affinity
same,Conc. inducing 20% of HLA-A2 expression,HLA-A*0201; Table 9,33.45 µM
same,Relative affinity,HLA-A*0201; Table 9,1.26
same,HLA-A2 labelling at 0.1 μM,HLA-A*0201; Table 9,12.71
same,HLA-A2 labelling at 1 μM,HLA-A*0201; Table 9,14.18
same,HLA-A2 labelling at 10 μM,HLA-A*0201; Table 9,2.93
same,HLA-A2 labelling at 100 μM,HLA-A*0201; Table 9,100.24
"TMNGSKSPV [ENAH-1H, reference compound]",Binding to HLA-A*0201 (in words),HLA-A*0201,does not bind
same,HLA-A2 labelling at 0.1 μM,HLA-A*0201; Table 9,8.31
same,HLA-A2 labelling at 1 μM,HLA-A*0201; Table 9,−2.93
same,HLA-A2 labelling at 10 μM,HLA-A*0201; Table 9,19.07
same,HLA-A2 labelling at 100 μM,HLA-A*0201; Table 9,18.58
VLLGVVFGV [ERBB2-3B2],Affinity to HLA-A*0201 compared with the corresponding human peptide (in words),HLA-A*0201,higher affinity
same,Conc. inducing 20% of HLA-A2 expression,HLA-A*0201; Table 7,6.9 µM
same,Relative affinity,HLA-A*0201; Table 7,0.19
same,HLA-A2 labelling at 0.1 μM,HLA-A*0201; Table 7,−14.62
same,HLA-A2 labelling at 1 μM,HLA-A*0201; Table 7,1.51
same,HLA-A2 labelling at 10 μM,HLA-A*0201; Table 7,56.97
same,HLA-A2 labelling at 100 μM,HLA-A*0201; Table 7,335.97
VMLGVVFGI [ERBB2-3B3],Affinity to HLA-A*0201 compared with the corresponding human peptide (in words),HLA-A*0201,higher affinity
same,Conc. inducing 20% of HLA-A2 expression,HLA-A*0201; Table 7,12.5 µM
VMLGVVFGV [ERBB2-3B1],Affinity to HLA-A*0201 compared with the corresponding human peptide (in words),HLA-A*0201,higher affinity
same,Conc. inducing 20% of HLA-A2 expression,HLA-A*0201; Table 7,9 µM
"VVLGVVFGI [ERBB2-3H, reference compound]",Conc. inducing 20% of HLA-A2 expression,HLA-A*0201; Table 7,16.3 µM
same,Relative affinity,HLA-A*0201; Table 7,0.45
same,HLA-A2 labelling at 0.1 μM,HLA-A*0201; Table 7,−12.61
same,HLA-A2 labelling at 1 μM,HLA-A*0201; Table 7,−24.03
same,HLA-A2 labelling at 10 μM,HLA-A*0201; Table 7,11.93
same,HLA-A2 labelling at 100 μM,HLA-A*0201; Table 7,196.47
"WLPFGFILI [IL13RA2-H, reference compound]",Concentration that induces 20% of expression of the HLA-A*0201,HLA-A*0201,100 µM
same,Binding to HLA-A*0201 (in words),HLA-A*0201,does not bind
same,Percentage of ConA-induced response (ELISPOT-IFNγ),[1]; [2],2.0%
same,Percentage of ConA-induced response (ELISPOT-IFNγ),[1]; [3],1.1%
YLAVFLPIV [STEAP-B2],Affinity to HLA-A*0201 compared with the corresponding human peptide (in words),HLA-A*0201,higher affinity
same,Conc. inducing 20% of HLA-A2 expression,HLA-A*0201; Table 8,8.22 µM

# Reference: patent US12263210B2, “Immunogenic compounds for cancer therapy” (priority 2016, dated 2025)
